Test results from WO2012010582A1.

Target: human CXCR5 (human) (UniProt P32302)
Assay: cell-based or functional assay

Sequence of UniProt P32302 (P32302 whole entry): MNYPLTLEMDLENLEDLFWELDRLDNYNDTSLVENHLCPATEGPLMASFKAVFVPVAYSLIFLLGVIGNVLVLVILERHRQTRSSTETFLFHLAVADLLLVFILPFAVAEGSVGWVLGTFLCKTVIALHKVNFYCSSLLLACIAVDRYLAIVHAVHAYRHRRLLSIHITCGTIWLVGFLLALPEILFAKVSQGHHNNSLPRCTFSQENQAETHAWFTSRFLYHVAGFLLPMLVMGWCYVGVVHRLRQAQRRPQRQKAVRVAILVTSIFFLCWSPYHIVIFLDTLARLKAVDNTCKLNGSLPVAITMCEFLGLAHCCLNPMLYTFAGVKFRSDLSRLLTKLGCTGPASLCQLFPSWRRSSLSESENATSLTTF

- Ca-flux (FLU) at 0 nM rhCXCL13 (baseline): 1680 FLU
- Ca-flux (FLU) at 1.95 nM rhCXCL13: 2220 FLU
- Ca-flux (FLU) at 3.91 nM rhCXCL13: 1840 FLU
- Ca-flux (FLU) at 7.81 nM rhCXCL13: 1860 FLU
- Ca-flux (FLU) at 16 nM rhCXCL13: 6160 FLU
- Ca-flux (FLU) at 31 nM rhCXCL13: 31100 FLU
- Ca-flux (FLU) at 63 nM rhCXCL13: 51900 FLU
- Ca-flux (FLU) at 125 nM rhCXCL13: 74700 FLU
- Ca-flux (FLU) at 250 nM rhCXCL13: 78400 FLU
- Ca-flux (FLU) at 500 nM rhCXCL13: 68100 FLU
Substance: human CXCL13 (from UniProt O43927 23-94) (ligand)
